Values of other authors, collected in PMC10764639.

Biological target: TLR4 (Homo sapiens) (UniProt O00206)
Chain of UniProt O00206 (O00206 24-839): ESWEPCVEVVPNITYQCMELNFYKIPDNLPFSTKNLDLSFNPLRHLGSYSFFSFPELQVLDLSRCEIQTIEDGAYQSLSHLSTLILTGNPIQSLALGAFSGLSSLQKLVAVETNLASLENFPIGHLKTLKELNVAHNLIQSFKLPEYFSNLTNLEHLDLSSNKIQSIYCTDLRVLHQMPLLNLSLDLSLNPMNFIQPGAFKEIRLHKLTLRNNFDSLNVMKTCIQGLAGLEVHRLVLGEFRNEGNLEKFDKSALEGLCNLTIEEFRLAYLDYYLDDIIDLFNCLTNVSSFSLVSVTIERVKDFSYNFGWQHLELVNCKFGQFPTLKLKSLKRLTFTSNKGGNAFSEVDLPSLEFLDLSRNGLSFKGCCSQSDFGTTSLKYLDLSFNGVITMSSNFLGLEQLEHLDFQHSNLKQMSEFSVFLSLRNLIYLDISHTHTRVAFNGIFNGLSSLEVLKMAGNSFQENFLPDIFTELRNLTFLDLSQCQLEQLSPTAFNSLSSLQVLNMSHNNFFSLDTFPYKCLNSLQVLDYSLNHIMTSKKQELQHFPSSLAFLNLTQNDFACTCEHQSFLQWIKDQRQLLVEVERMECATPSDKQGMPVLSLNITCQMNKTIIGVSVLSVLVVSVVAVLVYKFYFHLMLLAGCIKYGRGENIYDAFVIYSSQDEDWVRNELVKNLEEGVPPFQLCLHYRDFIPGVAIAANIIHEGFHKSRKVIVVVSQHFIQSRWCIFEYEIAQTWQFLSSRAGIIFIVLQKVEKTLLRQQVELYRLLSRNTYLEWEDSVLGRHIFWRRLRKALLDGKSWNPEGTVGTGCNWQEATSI

For HMGB1 (from UniProt P09429), which Kd is on record?
The Kd was 12 nM.
